IntAct's records for PubMed 19359471

B1: Anterior gradient protein 2 homolog (Homo sapiens), O95994 (parent)
chain: MEKIPVSAFLLLVALSYTLARDTTVKPGAKKDTKDSRPKLPQTLSRGWGDQLIWTQTYEEALYKSKTSNKPLMIIHHLDECPHSQALKKVFAENKEIQKLAEQFVLLNLVYETTDKHLSPDGQYVPRIMFVDPSLTVRADITGRYSNRLYAYEPADTALLLDNMKKALKLLKTEL

Variants of: B1
Conditions: with muc2_human MUC2, Q02817

effect of a mutation on the interaction	Variant
disrupting interaction	C81S
